In patent US20170000909:

Key:
[1] = biological target: T1, Peptide 1
T1 chain: GPLGLAGKWAAAAKAAAAK

[2] = biological target: T2, M4 micelle
T2 chain: GPLGLAGKWAAAAKAAAAK

[3] = biological target: T3, M1 micelle of fluorescein labelled PPA-1 (not fully specified)
T3 chain: GPLGLAGKWAAAAKAAAAK

B1: matrix-metalloproteinase 9 (protein)
chain: MRTPRCGVPDLGRFQTFEGDLKWHHHNITYWIQNYSEDLPRAVIDDAFARAFALWSAVTPLTFTRVYSRDADIVIQFGVAEHGDGYPFDGKDGLLAHAFPPGPGIQGDAHFDDDELWSLGKGVVVPTRFGNADGAACHFPFIFEGRSYSACTTDGRSDGLPWCSTTANYDTDDRFGFCPSERLYTQDGNADGKPCQFPFIFQGQSYSACTTDGRSDGYRWCATTANYDRDKLFGFCPTRADSTVMGGNSAGELCVFPFTFLGKEYSTCTSEGRGDGRLWCATTSNFDSDKKWGFCPDQGYSLFLVAAHEFGHALGLDHSSVPEALMYPMYRFTEGPPLHKDDVNGIRHLYGPRPEPEPRPPTTTTPQPTAPPTVCPTGPPTVHPSERPTAGPTGPPSAGPTGPPTAGPSTATTVPLSPVDDACNVNIFDAIAEIGNQLYLFKDGKYWRFSEGRGSRPQGPFLIADKWPALPRKLDSVFEERLSKKLFFFSGRQVWVYTGASVLGPRRLDKLGLGADVAQVTGALRSGRGKMLLFSGRRLWRFDVKAQMVDPRSASEVDRMFPGVPLDTHDVFQYREKAYFCQDRFYWRVSSRSELNQVDQVGYVTYDILQCPED
MMP-9 cleavage efficiency (RP-HPLC after 24 hrs) [1]: quantitative
Michaelis-Menten kinetics (Kcat and KM) from fluorescein signal increase upon cleavage of the Dabcyl label [2]: this substrate for MMP-9 is comparable to standard substrate
MMP-9 cleavage efficiency (RP-HPLC after 24 hrs) [3]: estimated to be 41%
